We go through 1 substance from paper PMC10332591.

This test addresses human CD64 (FcγRI) (human) (UniProt P12314). Description: BLI; Octet RED96; biotinylated human CD64, CD32a or CD16a loaded on streptavidin biosensors; serially diluted ARX788 drug substance in HBS-P+ buffer; global fit, Langmuir 1:1 model; for CD32a and CD16a only 3.0 seconds of the dissociation step fitted to avoid avidity effects.

Values joined by “and” are separate entries in the source; they are usually repeats but may differ in a detail not shown here. Identical values can stand only once.

Chain of human CD64 (FcγRI) (human) (P12314 16-374): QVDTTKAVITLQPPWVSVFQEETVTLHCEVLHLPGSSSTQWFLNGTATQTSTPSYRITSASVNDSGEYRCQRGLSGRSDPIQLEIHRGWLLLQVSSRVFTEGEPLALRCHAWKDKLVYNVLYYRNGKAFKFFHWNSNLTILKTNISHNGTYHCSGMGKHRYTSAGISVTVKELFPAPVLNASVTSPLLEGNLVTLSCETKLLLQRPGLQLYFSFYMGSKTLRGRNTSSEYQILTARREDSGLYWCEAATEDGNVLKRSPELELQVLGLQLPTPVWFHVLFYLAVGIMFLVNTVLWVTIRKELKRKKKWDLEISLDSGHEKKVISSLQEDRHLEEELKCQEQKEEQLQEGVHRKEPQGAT

In the case of ARX788 (antibody), the KD ratio (Sample/RS) was 0.98 and 0.89 and 1.
